From PMC9947773, “Modeling C3 glomerulopathies: C3 convertase regulation on an extracellular matrix surface” (Frontiers in Immunology, 2022) come the findings set out here.

The assay has as its target T1, C3b (human, UniProt P01024 23-667; P01024 749-1663).
T1 construct: complement C3, human; beta chain of C3b; alpha' chain of C3b (alpha chain without C3a); Coated on MaxGel (ECM) in microtiter wells at 130 ug/ml; also called purified C3b; source: bought: Complement Technology Inc., purified
In words: C3 convertase formation assay (C3CFA), elution and western blot for Bb; C3b coated on MaxGel; FB + FD with Factor H or a Factor H variant as reactant (22.5 ug/ml), 10 min at 37°C; washed x3; eluted. Conditions: both partners purified. For orientation: In western blotting, separated proteins are transferred to a membrane and probed.

T1 sequence (P01024 23-667, chain 1 of 2): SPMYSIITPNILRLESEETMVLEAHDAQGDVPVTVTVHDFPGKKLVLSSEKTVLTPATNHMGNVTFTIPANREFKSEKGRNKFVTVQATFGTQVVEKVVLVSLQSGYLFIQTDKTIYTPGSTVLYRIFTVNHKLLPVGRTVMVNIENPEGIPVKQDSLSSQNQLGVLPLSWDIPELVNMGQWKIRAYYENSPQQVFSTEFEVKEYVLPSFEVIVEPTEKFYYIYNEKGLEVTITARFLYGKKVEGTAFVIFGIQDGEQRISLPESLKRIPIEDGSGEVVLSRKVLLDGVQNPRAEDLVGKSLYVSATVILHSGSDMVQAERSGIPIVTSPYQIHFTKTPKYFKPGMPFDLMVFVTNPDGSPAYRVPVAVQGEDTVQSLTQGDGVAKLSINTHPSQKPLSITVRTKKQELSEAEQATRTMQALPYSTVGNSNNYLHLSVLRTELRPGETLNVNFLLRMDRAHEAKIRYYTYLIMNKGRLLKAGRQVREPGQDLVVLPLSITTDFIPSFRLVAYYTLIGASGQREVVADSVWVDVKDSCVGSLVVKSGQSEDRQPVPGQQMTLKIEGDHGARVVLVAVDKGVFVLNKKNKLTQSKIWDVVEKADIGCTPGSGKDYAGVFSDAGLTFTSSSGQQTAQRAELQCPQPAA
T1 sequence (P01024 749-1663, chain 2 of 2): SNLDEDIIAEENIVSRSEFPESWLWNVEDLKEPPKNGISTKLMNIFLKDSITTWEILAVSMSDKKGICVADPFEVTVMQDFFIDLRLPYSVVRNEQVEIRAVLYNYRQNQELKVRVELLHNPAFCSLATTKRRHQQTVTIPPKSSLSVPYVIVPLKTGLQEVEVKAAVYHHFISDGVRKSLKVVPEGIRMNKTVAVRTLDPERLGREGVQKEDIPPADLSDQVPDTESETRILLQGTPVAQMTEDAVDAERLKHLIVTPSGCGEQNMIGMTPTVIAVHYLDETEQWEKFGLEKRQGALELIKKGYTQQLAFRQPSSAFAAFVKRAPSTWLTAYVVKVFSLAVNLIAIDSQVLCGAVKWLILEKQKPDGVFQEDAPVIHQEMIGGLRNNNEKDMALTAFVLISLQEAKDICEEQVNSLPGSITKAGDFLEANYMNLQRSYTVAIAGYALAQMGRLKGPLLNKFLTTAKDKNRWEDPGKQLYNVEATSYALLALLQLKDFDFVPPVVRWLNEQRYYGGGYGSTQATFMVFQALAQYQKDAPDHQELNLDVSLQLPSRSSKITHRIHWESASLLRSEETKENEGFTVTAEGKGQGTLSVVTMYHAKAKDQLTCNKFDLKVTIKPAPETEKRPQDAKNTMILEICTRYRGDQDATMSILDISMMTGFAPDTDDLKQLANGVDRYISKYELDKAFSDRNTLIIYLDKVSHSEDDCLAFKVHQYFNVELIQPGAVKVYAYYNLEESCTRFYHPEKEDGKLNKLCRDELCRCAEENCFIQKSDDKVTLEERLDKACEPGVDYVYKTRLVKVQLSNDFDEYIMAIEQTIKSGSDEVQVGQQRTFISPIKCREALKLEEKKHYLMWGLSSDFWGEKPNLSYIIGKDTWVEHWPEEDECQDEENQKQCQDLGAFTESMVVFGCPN

B1: Factor H (natural protein, human, UniProt P08603 19-1231, looked up)
chain: EDCNELPPRRNTEILTGSWSDQTYPEGTQAIYKCRPGYRSLGNVIMVCRKGEWVALNPLRKCQKRPCGHPGDTPFGTFTLTGGNVFEYGVKAVYTCNEGYQLLGEINYRECDTDGWTNDIPICEVVKCLPVTAPENGKIVSSAMEPDREYHFGQAVRFVCNSGYKIEGDEEMHCSDDGFWSKEKPKCVEISCKSPDVINGSPISQKIIYKENERFQYKCNMGYEYSERGDAVCTESGWRPLPSCEEKSCDNPYIPNGDYSPLRIKHRTGDEITYQCRNGFYPATRGNTAKCTSTGWIPAPRCTLKPCDYPDIKHGGLYHENMRRPYFPVAVGKYYSYYCDEHFETPSGSYWDHIHCTQDGWSPAVPCLRKCYFPYLENGYNQNYGRKFVQGKSIDVACHPGYALPKAQTTVTCMENGWSPTPRCIRVKTCSKSSIDIENGFISESQYTYALKEKAKYQCKLGYVTADGETSGSITCGKDGWSAQPTCIKSCDIPVFMNARTKNDFTWFKLNDTLDYECHDGYESNTGSTTGSIVCGYNGWSDLPICYERECELPKIDVHLVPDRKKDQYKVGEVLKFSCKPGFTIVGPNSVQCYHFGLSPDLPICKEQVQSCGPPPELLNGNVKEKTKEEYGHSEVVEYYCNPRFLMKGPNKIQCVDGEWTTLPVCIVEESTCGDIPELEHGWAQLSSPPYYYGDSVEFNCSESFTMIGHRSITCIHGVWTQLPQCVAIDKLKKCKSSNLIILEEHLKNKKEFDHNSNIRYRCRGKEGWIHTVCINGRWDPEVNCSMAQIQLCPPPPQIPNSHNMTTTLNYRDGEKVSVLCQENYLIQEGEEITCKDGRWQSIPLCVEKIPCSQPPQIEHGTINSSRSSQESYAHGTKLSYTCEGGFRISEENETTCYMGKWSSPPQCEGLPCKSPPEISHGVVAHMSDSYQYGEEVTYKCFEGFGIDGPAIAKCLGEKWSHPPSCIKTDCLSLPSFENAIPMGEKKDVYKAGEQVTYTCATYYKMDGASNVTCINSRWTGRPTCRDTSCVNPPTVQNAYIVSRQMSKYPSGERVRYQCRSPYEMFGDEEVMCLNGNWTEPPQCKDSTGKCGPPPPIDNGDITSFPLSVYAPASSVEYQCQNLYQLEGNKRITCRNGQWSEPPKCLHPCVISREIMENYNIALRWTAKQKLYSRTGESVEFVCKRGYRLSSRSHTLRTTCWDGKLEYPTCAKR
notes: complement factor H, human; Used at 22.5 ug/ml; also called FH; WT FH; source: bought: Complement Technology Inc
With B1, the binding result was “binds”.
